Residue numbers refer to the chain shown, from its start. Read-outs that look alike come from different tables or passages of the source. Blank lines part the entries; values can stand above or below the binder they belong to.
Assays:
[1] = target: T1, human alpha2-Antiplasmin (human, UniProt P08697 40-491); assay: cell-based or functional assay
T1 sequence: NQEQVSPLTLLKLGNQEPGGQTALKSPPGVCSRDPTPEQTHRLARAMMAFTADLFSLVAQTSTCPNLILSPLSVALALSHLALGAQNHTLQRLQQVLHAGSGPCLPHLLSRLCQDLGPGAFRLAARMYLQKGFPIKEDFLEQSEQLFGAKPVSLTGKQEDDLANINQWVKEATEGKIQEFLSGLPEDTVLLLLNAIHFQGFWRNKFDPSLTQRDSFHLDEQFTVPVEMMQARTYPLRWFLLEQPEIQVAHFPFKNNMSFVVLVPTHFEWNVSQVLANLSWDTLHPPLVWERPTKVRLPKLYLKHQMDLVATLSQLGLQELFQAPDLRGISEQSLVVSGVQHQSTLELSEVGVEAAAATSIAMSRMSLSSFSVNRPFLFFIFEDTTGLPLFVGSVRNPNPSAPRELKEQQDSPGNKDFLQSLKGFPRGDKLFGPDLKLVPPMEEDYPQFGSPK

[2] = target: human Plasmin (human, UniProt P00747 97-580; P00747 581-810, limits assumed); assay: cell-based or functional assay
Chain of human Plasmin (P00747 97-580 limits assumed, chain 1 of 2): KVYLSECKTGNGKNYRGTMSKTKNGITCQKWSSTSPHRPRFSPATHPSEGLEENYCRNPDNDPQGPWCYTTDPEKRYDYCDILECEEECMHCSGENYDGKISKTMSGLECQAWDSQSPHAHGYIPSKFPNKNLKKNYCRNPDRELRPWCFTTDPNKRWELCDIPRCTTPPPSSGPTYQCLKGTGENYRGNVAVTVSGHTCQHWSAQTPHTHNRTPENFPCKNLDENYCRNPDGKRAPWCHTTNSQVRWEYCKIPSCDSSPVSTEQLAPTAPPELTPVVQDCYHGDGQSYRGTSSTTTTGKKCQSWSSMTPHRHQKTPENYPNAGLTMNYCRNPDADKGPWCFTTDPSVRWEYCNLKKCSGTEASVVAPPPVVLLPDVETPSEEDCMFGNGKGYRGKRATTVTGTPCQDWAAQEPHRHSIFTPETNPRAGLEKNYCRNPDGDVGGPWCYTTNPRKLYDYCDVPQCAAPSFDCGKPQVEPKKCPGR
Chain of human Plasmin (P00747 581-810 limits assumed, chain 2 of 2): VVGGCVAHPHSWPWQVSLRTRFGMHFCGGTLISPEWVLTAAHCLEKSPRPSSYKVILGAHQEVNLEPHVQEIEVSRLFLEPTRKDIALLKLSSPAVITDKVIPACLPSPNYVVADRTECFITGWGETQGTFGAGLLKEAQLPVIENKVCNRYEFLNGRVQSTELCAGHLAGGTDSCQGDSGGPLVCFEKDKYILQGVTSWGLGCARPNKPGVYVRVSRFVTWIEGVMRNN

[3] = target: T1, human alpha2-Antiplasmin; assay: cell-based or functional assay; remark: listed apart in the source
[4] = target: T1, human alpha2-Antiplasmin; assay: ELISA, coated antigen, 1st exp.
Protocol: (§1) A standard ELISA format was used for analyzing the binding affinity of Fabs of this invention to human and rabbit alpha-2-Antiplasmin, respectively. Antigens were coated to black 384 well Maxisorp microtiter plates (Nunc; catalogue number 460518), diluted to a concentration of 1 μg/ml in 1× Coating Buffer (Candor Bioscience; catalogue number 121125). Plates were incubated overnight at 4° C. After overnight incubation, plates were washed 2× with 50 μl/well using PBS+0.05% Tween 20. Following this, 50 μl/well of blocking buffer (Smart Block; Candor Bioscience; catalogue number 113500) was added and the plates were incubated for 1 hour at room temperature. Afterwards, plates were washed for 3× using […] PBS+0.05% Tween 20 buffer. Fabs of this invention were added at different concentrations in a final volume of 30 μl/well. Plates were incubated for 1 hour at room temperature. Following this incubation step, plates were washed for 3× using 50 μl/well of a PBS+0.05% Tween 20 buffer. For the detection of bound Fabs and full-length antibodies, the anti-Human Lambda Light Chains (Bound and Free)—Peroxidase antibody (Sigma; catalogue number A5175) was diluted by the factor of 1:10.000 in 10% Blocking Buffer. 30 μl/well of this diluted detection antibody was added and plates are incubated for 1 hour at room temperature. Following this incubation step, plates were washed for 3× using 50 μl/well of a PBS+0.05% Tween 20 buffer. As substrate, a mixture of 30 μl/well of 1:1000 diluted Amplex red (Invitrogen; catalogue number 12222; stock solution 10 mM in DMSO) and 1:10.000 of Hydrogen peroxide (Merck; catalogue number 107209; 30% stock solution) was added and the plates incubated for minutes in the dark.
(§2) For measurement, the Infinite f500 reader (Tecan) was used. Measurement mode: Fluorescence; Top reading; Ex 535 nm; Em 590 nm.
(§3) According to the methods described in Example 3 and Example 4, antibodies TPP-14323, TPP-14318, TPP-14314, TPP-14313, TPP-14308, TPP-14305, TPP-14303, TPP-14298, and TPP-14293 were tested for their ability to bind to and to block the activity of human alpha2-Antiplasmin in a dose-dependent manner. For each antibody, one dose response curve from two to three independent experiments performed in quadruplicate is shown as example in FIG. 7.1 to FIG. 7.18. (see Table 3.3)

[5] = target: T1, human alpha2-Antiplasmin; assay: ELISA, coated antigen, 2nd exp.
Protocol: as §1, §2, §3

[6] = target: T1, human alpha2-Antiplasmin; assay: ELISA, coated antigen, 3rd exp.
Protocol: as §1, §2, §3

[7] = target: T1, human alpha2-Antiplasmin; assay: cell-based or functional assay; remark: listed apart in the source
[8] = target: T1, human alpha2-Antiplasmin; assay: ELISA (Example 3), human alpha2-Antiplasmin coated, RFU
Protocol: as §1, with “As substrate, a mixture of 30 μl/well of 1:1000 diluted Amplex red (Invitrogen; catalogue number 12222; stock solution 10 mM in DMSO) and 1:10.000 of Hydrogen peroxide (Merck; catalogue number 107209; 30% stock solution) was added and the plates incubated for minutes in the dark.” left out
as §2
According to the method described in Example 3, these 12 antibodies were tested for ability to bind human and rabbit alpha2-Antiplasmin in a dose-dependent manner. Data generated were analyzed using the GraphPadPrism software. The binding activities of the antibodies were calculated as EC50 values. […]

[9] = target: T1, human alpha2-Antiplasmin; assay: cell-based or functional assay; remark: listed apart in the source
[10] = target: T1, human alpha2-Antiplasmin; assay: cell-based or functional assay; remark: listed apart in the source
[11] = target: T1, human alpha2-Antiplasmin; assay: ELISA, coated antigen, quantified unpurified antibody, 1st exp.
[12] = target: T1, human alpha2-Antiplasmin; assay: ELISA, coated antigen, quantified unpurified antibody, 2nd exp.
[13] = target: T1, human alpha2-Antiplasmin; assay: ELISA, coated antigen, quantified unpurified antibody, 3rd exp.
Protocol: as §1, §2

[14] = target: T1, human alpha2-Antiplasmin; assay: SPR Biacore T200, antibody captured on protein G chip, A2AP as analyte, 25 C
Protocol: (§4) Binding assays were performed on a Biacore T200 instrument at 25° C. with a protein G sensor chip and assay buffer HBS-EP+. Antibodies were captured to ˜150 RU and analytes were used at concentrations between 1.56 and 200 nM for full kinetics. As interaction partner, alpha2-Antiplasmin from human, cynomolgus and rabbit was used. Regeneration was performed with glycine-HCl pH 1.5. Kinetic parameters were derived by fitting experimental sensorgrams to a 1:1 Langmuir binding model.

[15] = target: T2, rabbit alpha2-Antiplasmin (rabbit (Oryctolagus cuniculus)); assay: as above
T2 construct: Made in house in HEK293 cells, purified by Ni-IMAC and SEC (a His tag is implied but not described); also called rabbit A2AP; Oryctolagus cuniculus A2AP
T2 chain: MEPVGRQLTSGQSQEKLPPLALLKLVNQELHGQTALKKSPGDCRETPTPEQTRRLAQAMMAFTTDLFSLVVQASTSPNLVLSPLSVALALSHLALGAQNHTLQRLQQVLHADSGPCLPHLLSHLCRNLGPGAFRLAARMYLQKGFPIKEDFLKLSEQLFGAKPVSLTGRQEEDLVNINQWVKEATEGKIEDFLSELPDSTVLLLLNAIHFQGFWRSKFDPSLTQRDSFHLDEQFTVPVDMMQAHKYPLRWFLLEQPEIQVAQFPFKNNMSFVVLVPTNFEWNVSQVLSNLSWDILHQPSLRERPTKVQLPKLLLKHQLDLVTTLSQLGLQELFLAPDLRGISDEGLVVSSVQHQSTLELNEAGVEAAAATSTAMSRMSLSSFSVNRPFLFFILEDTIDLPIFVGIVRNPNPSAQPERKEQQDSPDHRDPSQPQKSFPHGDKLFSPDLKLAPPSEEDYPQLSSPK
Protocol: as §4

[16] = target: T3, cynomolgus alpha2-Antiplasmin (cynomolgus (Macaca fascicularis), UniProt P08697 28-491 (human entry)); assay: as above
T3 construct: Made in house in the same way as the rabbit protein; also called cynomolgus A2AP; Macaca fascicularis A2AP
T3 chain: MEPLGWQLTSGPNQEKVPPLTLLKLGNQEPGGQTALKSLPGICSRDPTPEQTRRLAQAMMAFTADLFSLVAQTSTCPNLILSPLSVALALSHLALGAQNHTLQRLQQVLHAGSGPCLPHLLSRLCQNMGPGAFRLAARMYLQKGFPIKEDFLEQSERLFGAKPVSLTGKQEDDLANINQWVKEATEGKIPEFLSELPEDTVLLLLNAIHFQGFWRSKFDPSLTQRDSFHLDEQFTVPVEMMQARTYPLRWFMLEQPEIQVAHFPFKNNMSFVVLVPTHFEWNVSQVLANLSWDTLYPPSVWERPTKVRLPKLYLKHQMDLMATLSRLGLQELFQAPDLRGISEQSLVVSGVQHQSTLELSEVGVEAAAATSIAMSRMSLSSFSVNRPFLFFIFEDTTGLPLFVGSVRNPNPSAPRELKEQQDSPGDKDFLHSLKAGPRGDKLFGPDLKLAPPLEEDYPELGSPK
Protocol: as §4

[17] = target: T1, human alpha2-Antiplasmin; assay: cell-based or functional assay; remark: listed apart in the source
[18] = target: T1, human alpha2-Antiplasmin; assay: cell-based or functional assay; remark: listed apart in the source

B1: TPP-14305 hIgG1 (antibody, V domains shown)
VH: EVQLLESGGGLVQPGGSLRLSCAASGFTFDDYAMSWVRQAPGKGLEWVSAIGTGGGTYYADSVKGRFTISRDNSKNTLYLQMNSLRAEDTAVYYCAREGYDSSGYYHLDYWGQGTLVTVSS
VL: QSVLTQPPSASGTPGQRVTISCTGSSSNIGATYDVHWYQQLPGTAPKLLIYSNNQRPSGVPDRFSGSKSGTSASLAISGLRSEDEADYYCWAWDDSLSGWVFGGGTKLTVLG
function blocking activity [IC50 M], 1st exp. [1]: 64 nM
function blocking activity [IC50 M], 2nd exp. [1]: 69 nM
function blocking activity [IC50 M], 3rd exp. [1]: 66 nM
IC50 [M], inhibition of plasmin proteolytic activity [2]: > 2e-06 M
EC50 (read off the curve); function blocking assay (Example 4), RFU of plasmin substrate cleavage [3]: ~60 nM
EC50 [4]: 15 nM
EC50 [5]: 16 nM
EC50 [6]: 16 nM

B2: TPP-14313 hIgG1 (antibody, V domains shown)
VH: B1 VH with G99Y, D109V
VL: QSVLTQPPSASGTPGQRVTISCTGSSSNIGATYDVHWYQQLPGTAPKLLIYSNNQRPSGVPDRFSGSKSGTSASLAISGLRSEDEADYYCAAWDWSLSGWVFGGGTKLTVL
notes: Human IgG1 lambda
function blocking activity [IC50 M], 1st exp. [1]: 12 nM
function blocking activity [IC50 M], 2nd exp. [1]: 20 nM
function blocking activity [IC50 M], 3rd exp. [1]: 13 nM
IC50 [M], inhibition of plasmin proteolytic activity [2]: > 5e-06 M
EC50 (read off the curve); function blocking assay (Example 4), RFU of plasmin substrate cleavage [7]: ~10 nM
EC50 [4]: 3.3 nM
EC50 [5]: 35 nM
EC50 [6]: 34 nM
EC50 (read off the curve) [8]: ~3 nM

B5: TPP-14308 hIgG1 (antibody, V domains shown)
VH: B1 VH
VL: B1 VL with W91A, D95W
notes: starting point of the germlining
function blocking activity [IC50 M], 1st exp. [1]: 2.4 nM
function blocking activity [IC50 M], 2nd exp. [1]: 30 nM
function blocking activity [IC50 M], 3rd exp. [1]: 24 nM
IC50 [M], inhibition of plasmin proteolytic activity [2]: > 5e-06 M
EC50 (read off the curve); function blocking assay (Example 4), RFU of plasmin substrate cleavage [18]: ~2 nM
EC50 [4]: 5.7 nM
EC50 [5]: 61 nM
EC50 [6]: 60 nM
EC50 (read off the curve); function blocking assay (Example 4), RFU of plasmin substrate cleavage; comparator curve [same curve in 8.4, D00008 8.6, 8.8, D00009 8.10, 8.12] [17]: ~2 nM
Kd [14]: 3.9 nM
Kd [15]: 7.8 nM
Kd [16]: 3.1 nM

B6: TPP-14314 hIgG1 (antibody, V domains shown)
VH: B1 VH with G99Y, D109V
VL: B2 VL with W95V
notes: Human IgG1 lambda
function blocking activity [IC50 M], 1st exp. [1]: 68 nM
function blocking activity [IC50 M], 2nd exp. [1]: 73 nM
function blocking activity [IC50 M], 3rd exp. [1]: 69 nM
IC50 [M], inhibition of plasmin proteolytic activity [2]: > 2e-06 M
EC50 [4]: 8.1 nM
EC50 [5]: 82 nM
EC50 [6]: 84 nM
EC50 (read off the curve) [8]: ~8 nM

Next, values leading:

IC50, A2AP function blocking assay (Example 10) [9]: 0.33 nM
function blocking activity [IC50 M], 1st exp. [10]: 0.33 nM
function blocking activity [IC50 M], 2nd exp. [10]: 0.44 nM
IC50 [M], inhibition of plasmin proteolytic activity [2]: > 1e-05 M
EC50 [11]: 0.11 nM
EC50 [12]: 0.16 nM
EC50 [13]: 0.22 nM
Kd [14]: 18 nM
Kd [15]: 17 nM
Kd [16]: 13 nM
B3: TPP-17051 hIgG1 (antibody, V domains shown)
VH: B1 VH with D31S, G56S
VL: B1 VL with W91A, D95W
notes: Germline variant of TPP-14308

IC50, A2AP function blocking assay (Example 10) [9]: 0.64 nM
function blocking activity [IC50 M], 1st exp. [10]: 0.56 nM
function blocking activity [IC50 M], 2nd exp. [10]: 0.69 nM
IC50 [M], inhibition of plasmin proteolytic activity [2]: > 1e-05 M
EC50 (read off the curve); function blocking assay (Example 4), RFU of plasmin substrate cleavage [17]: ~0.5 nM
EC50 [11]: 0.19 nM
EC50 [12]: 0.23 nM
Kd [14]: 11 nM
Kd [15]: 18 nM
Kd [16]: 7.6 nM
B4: TPP-17041 hIgG1 (antibody, V domains shown)
VH: B1 VH with D30S
VL: B1 VL with W91A, D95W
notes: Germline variant of TPP-14308

Reference: patent US20240010750A1 (Bayer, published 2024)
